How the values were obtained:
[1] = biological target: T1, recombinant human CA IX (human, UniProt Q16790 38-414); test: SPR (Biacore 2000), antibody captured on CM5 chip, rh CA IX in flow, 25 C
Method: (§1) In order to determinate the antigen-binding affinity of humanized variants, measurements of affinity constant (KD) for antibodies binding to CA IX were performed by SPR using a Biacore 2000 (T200 in case of CA9hu-2) instrument (GE Healthcare, Piscataway, NJ USA). Each humanized antibody variant was captured on the CM5 sensor chip and recombinant human CA IX (rh CA IX; 42 kDa; R&D Systems, Inc., Minneapolis MN, USA) protein as an antigen was added to the buffer flowing over the chip. The setting details of quantitative interaction analysis between humanized antibodies and rh CA IX were as follows: flow rate 30 μl/min; analysis temperature 25° C.; analysis buffer (10mM HEPES pH 7.4, 150 mM NaCl, […], 0.05% Tween 20). Results from SPR analysis are expressed as the equilibrium dissociation constant (KD) (Table 7).

[2] = biological target: T1, recombinant human CA IX; test: SPR (Biacore T200), antibody captured on CM5 chip, rh CA IX in flow, 25 C
Method: as §1

[3] = biological target: CA IX expressed by cells (C-33a_CA IX transfectants; hypoxic BT-20, JIMT-1, 8-MG-BA and 42-MG-BA cells) (human, UniProt Q16790 38-459); test: cell-based or functional assay

Binder	Kd [1] [nM]	Kd [2] [nM]	ADCC reporter luminescence, C-33a_CA IX against C-33a_neo cells [3] [times]
CA9hu-1_HC5LC3 (antibody, V domains shown, Humanized from murine VII/20; also called HC5LC3 (CA9hu-1)) VH: EVQLVESGGGLVQPGGSLRLSCAASGFTFTDYYMHWVRQAPGKGLEWVGFIRNKASGYTPQYSASVKGRFTISRDDSKNSLYLQMNSLKTEDTAVYYCVRGGHAGSNYWYFDVWGQGTMVTVSS VL: DIQMTQSPSSLSASVGDRVTITCHVSQNINVWLSWYQQKPGEAPKLLIYQASNLHTGVPSRFSGSGSGTDFTLTISSLQPEDFATYYCQQGQSYPFTFGQGTKLEIK	56		
CA9hu-1_HC1LC4 (antibody, V domains shown, Humanized from murine VII/20; also called HC1LC4 (CA9hu-1)) VH: EVQLVESGGGLVQPGGSLRLSCAASGFTFTDYYMHWVRQAPGKGLEWVAFIRNKASGYTPQYSASVKGRFTISRDDSKNSLYLQMNSLKIEDTAVYYCVRGGHAGSNYWYFDVWGQGTTVTVSS VL: DIQMTQSPSSLSASVGDRVTINCHVSQNINVWLSWYQQKPGEAPKLLIYQASNLHTGVPSRFSGSGSGTGFTLTIRSLQPEDYATYYCQQGQSYPFTFGQGTKLEIK	100		
CA9hu-1_HC1LC5 (antibody, V domains shown, Humanized from murine VII/20; also called HC1LC5 (CA9hu-1)) VH: EVQLVESGGGLVQPGGSLRLSCAASGFTFTDYYMHWVRQAPGKGLEWVAFIRNKASGYTPQYSASVKGRFTISRDDSKNSLYLQMNSLKIEDTAVYYCVRGGHAGSNYWYFDVWGQGTTVTVSS VL: DIQMTQSPSSLSASVGDRVTITCHVSQNINVWLSWYQQKPGKAPKLLIYQASNLHTGVPSRFSGSGSGTDFTFTISSLQPEDIATYYCQQGQSYPFTFGQGTKLEIK	96		
CA9hu-1_HC1LC1 (antibody, V domains shown, Humanized from murine VII/20; also called HC1LC1 (CA9hu-1)) VH: EVQLVESGGGLVQPGGSLRLSCAASGFTFTDYYMHWVRQAPGKGLEWVAFIRNKASGYTPQYSASVKGRFTISRDDSKNSLYLQMNSLKIEDTAVYYCVRGGHAGSNYWYFDVWGQGTTVTVSS VL: DIQMTQSPSSLSASVGDRVTITCHVSQNINVWLSWYQQKPGKAPNLLIYQASNLHTGVPSRFSGSGSGTHFTLTISSLQPEDIATYYCQQGQSYPFTFGGGTKVEIK	97		
CA9hu-1_HC1LC2 (antibody, V domains shown, Humanized from murine VII/20; also called HC1LC2 (CA9hu-1)) VH: EVQLVESGGGLVQPGGSLRLSCAASGFTFTDYYMHWVRQAPGKGLEWVAFIRNKASGYTPQYSASVKGRFTISRDDSKNSLYLQMNSLKIEDTAVYYCVRGGHAGSNYWYFDVWGQGTTVTVSS VL: DIQMTQSPSTLSASVGDRVTITCHVSQNINVWLSWYQQKPGNAPKLLIYQASNLHTGVPSRFSGSGSGTEFTLTIGSLQPDDFVTYYCQQGQSYPFTFGQGTKVEIK	80		
CA9hu-1_HC1LC3 (antibody, V domains shown, Humanized from murine VII/20; also called HC1LC3 (CA9hu-1)) VH: EVQLVESGGGLVQPGGSLRLSCAASGFTFTDYYMHWVRQAPGKGLEWVAFIRNKASGYTPQYSASVKGRFTISRDDSKNSLYLQMNSLKIEDTAVYYCVRGGHAGSNYWYFDVWGQGTTVTVSS VL: DIQMTQSPSSLSASVGDRVTITCHVSQNINVWLSWYQQKPGEAPKLLIYQASNLHTGVPSRFSGSGSGTDFTLTISSLQPEDFATYYCQQGQSYPFTFGQGTKLEIK	96		
CA9hu-2_HC4LC4 (antibody, V domains shown, Humanized from murine IV/18; also called HC4LC4 (CA9hu-2)) VH: EVQLVESGGGVVQPGRSLRLSCAASGFTFNTNAMHWVRQAPGKGLEWVARIRSKSNNYTTYYADSVKDRFTISRDNSKNTLYLQMNSLRAEDTAVYYCVCGSWFAYWGQGTLVTVSS VL: DIVMTQSPDSLAVSLGERATINCKSSQSLLNSSNQKNYLAWFQQKPGQPPKVLIYFTSTRQSGVPDRFTGSGSGTDFTLTISSLQAEDVAVYYCQQHYSIPLTFGQGTKLEIK		74.6	2
CA9hu-2_HC3LC4 (antibody, V domains shown, Humanized from murine IV/18; also called HC3LC4 (CA9hu-2)) VH: QVQLVESGGGVVQPGGSLRLSCAASGFTFNTNAMHWVRQAPGRGLEWVARIRSKSNNYTTYYADSVKDRFTISRDNSKNTLYLQVNSLRAEDTAVYYCVCGSWFAYWGQGTLVTVSS VL: DIVMTQSPDSLAVSLGERATINCKSSQSLLNSSNQKNYLAWFQQKPGQPPKVLIYFTSTRQSGVPDRFTGSGSGTDFTLTISSLQAEDVAVYYCQQHYSIPLTFGQGTKLEIK		73.1	2
CA9hu-2_HC3LC1 (antibody, V domains shown, Humanized from murine IV/18; also called HC3LC1 (CA9hu-2)) VH: QVQLVESGGGVVQPGGSLRLSCAASGFTFNTNAMHWVRQAPGRGLEWVARIRSKSNNYTTYYADSVKDRFTISRDNSKNTLYLQVNSLRAEDTAVYYCVCGSWFAYWGQGTLVTVSS VL: DVVMTQSPDSLAVSLGERVTINCKSSQSLLNSSNQKNYLAWYQQKPGQSPKLLIYFTSTRQSGVPDRFSGSGSGTDFTLTISSLQAEDVAVYYCQQHYSIPLTFGQGTKLEIK		37.4	2
CA9hu-2_HC3LC3 (antibody, V domains shown, Humanized from murine IV/18; also called HC3LC3 (CA9hu-2)) VH: QVQLVESGGGVVQPGGSLRLSCAASGFTFNTNAMHWVRQAPGRGLEWVARIRSKSNNYTTYYADSVKDRFTISRDNSKNTLYLQVNSLRAEDTAVYYCVCGSWFAYWGQGTLVTVSS VL: DIQMTQSPDSLAVSLGERATINCKSSQSLLNSSNQKNYLAWYQQKPGQPPKLLIYFTSTRQSGVPDRFSGSGSGTDFTLTISSLQAEDVAVYFCQQHYSIPLTFGQGTKVEIK		62.3	2
CA9hu-2_HC3LC2 (antibody, V domains shown, Humanized from murine IV/18; also called HC3LC2 (CA9hu-2)) VH: QVQLVESGGGVVQPGGSLRLSCAASGFTFNTNAMHWVRQAPGRGLEWVARIRSKSNNYTTYYADSVKDRFTISRDNSKNTLYLQVNSLRAEDTAVYYCVCGSWFAYWGQGTLVTVSS VL: DIVMTQSPDSLAVSLGERATINCKSSQSLLNSSNQKNYLAWFQQKPGQPPNLVIYFTSTRQSGVPDRFSGSGSGTDFTLTINSLQAEDVAVYFCQQHYSIPLTFGQGTQVEIK		40.1	2
CA9hu-2_HC4LC2 (antibody, V domains shown, Humanized from murine IV/18; also called HC4LC2 (CA9hu-2)) VH: EVQLVESGGGVVQPGRSLRLSCAASGFTFNTNAMHWVRQAPGKGLEWVARIRSKSNNYTTYYADSVKDRFTISRDNSKNTLYLQMNSLRAEDTAVYYCVCGSWFAYWGQGTLVTVSS VL: DIVMTQSPDSLAVSLGERATINCKSSQSLLNSSNQKNYLAWFQQKPGQPPNLVIYFTSTRQSGVPDRFSGSGSGTDFTLTINSLQAEDVAVYFCQQHYSIPLTFGQGTQVEIK		32.7	2
CA9hu-2_HC5LC1 (antibody, V domains shown, Humanized from murine IV/18; also called HC5LC1 (CA9hu-2)) VH: EVQLVESGGGLVQPGGSLKLSCAASGFTFNTNAMHWVRQASGKGLEWVGRIRSKSNNYTTYYADSVKDRFTISRDDSKNTAYLQMNSLKTEDTAVYYCVCGSWFAYWGQGTTVTVSS VL: DVVMTQSPDSLAVSLGERVTINCKSSQSLLNSSNQKNYLAWYQQKPGQSPKLLIYFTSTRQSGVPDRFSGSGSGTDFTLTISSLQAEDVAVYYCQQHYSIPLTFGQGTKLEIK		69.8	2
CA9hu-2_HC5LC4 (antibody, V domains shown, Humanized from murine IV/18; also called HC5LC4 (CA9hu-2)) VH: EVQLVESGGGLVQPGGSLKLSCAASGFTFNTNAMHWVRQASGKGLEWVGRIRSKSNNYTTYYADSVKDRFTISRDDSKNTAYLQMNSLKTEDTAVYYCVCGSWFAYWGQGTTVTVSS VL: DIVMTQSPDSLAVSLGERATINCKSSQSLLNSSNQKNYLAWFQQKPGQPPKVLIYFTSTRQSGVPDRFTGSGSGTDFTLTISSLQAEDVAVYYCQQHYSIPLTFGQGTKLEIK		47.3	2
CA9hu-2_HC4LC5 (antibody, V domains shown, Humanized from murine IV/18; also called HC4LC5 (CA9hu-2)) VH: EVQLVESGGGVVQPGRSLRLSCAASGFTFNTNAMHWVRQAPGKGLEWVARIRSKSNNYTTYYADSVKDRFTISRDNSKNTLYLQMNSLRAEDTAVYYCVCGSWFAYWGQGTLVTVSS VL: DIVMTQSPDSLAVSLGERATINCKSSQSLLNSSNQKNYLAWYQQKPGQPPKLLIYFTSTRQSGVPDRFSGSGSGTDFTLTISSLQAEDVAVYYCQQHYSIPLTFGQGTKLEIK		41.9	2
CA9hu-2_HC5LC3 (antibody, V domains shown, Humanized from murine IV/18; also called HC5LC3 (CA9hu-2)) VH: EVQLVESGGGLVQPGGSLKLSCAASGFTFNTNAMHWVRQASGKGLEWVGRIRSKSNNYTTYYADSVKDRFTISRDDSKNTAYLQMNSLKTEDTAVYYCVCGSWFAYWGQGTTVTVSS VL: DIQMTQSPDSLAVSLGERATINCKSSQSLLNSSNQKNYLAWYQQKPGQPPKLLIYFTSTRQSGVPDRFSGSGSGTDFTLTISSLQAEDVAVYFCQQHYSIPLTFGQGTKVEIK		57.2	2
CA9hu-2_HC5LC2 (antibody, V domains shown, Humanized from murine IV/18; also called HC5LC2 (CA9hu-2)) VH: EVQLVESGGGLVQPGGSLKLSCAASGFTFNTNAMHWVRQASGKGLEWVGRIRSKSNNYTTYYADSVKDRFTISRDDSKNTAYLQMNSLKTEDTAVYYCVCGSWFAYWGQGTTVTVSS VL: DIVMTQSPDSLAVSLGERATINCKSSQSLLNSSNQKNYLAWFQQKPGQPPNLVIYFTSTRQSGVPDRFSGSGSGTDFTLTINSLQAEDVAVYFCQQHYSIPLTFGQGTQVEIK		105	2
CA9hu-2_HC5LC5 (antibody, V domains shown, Humanized from murine IV/18; also called HC5LC5 (CA9hu-2)) VH: EVQLVESGGGLVQPGGSLKLSCAASGFTFNTNAMHWVRQASGKGLEWVGRIRSKSNNYTTYYADSVKDRFTISRDDSKNTAYLQMNSLKTEDTAVYYCVCGSWFAYWGQGTTVTVSS VL: DIVMTQSPDSLAVSLGERATINCKSSQSLLNSSNQKNYLAWYQQKPGQPPKLLIYFTSTRQSGVPDRFSGSGSGTDFTLTISSLQAEDVAVYYCQQHYSIPLTFGQGTKLEIK		65.1	2
